Laboratory results as given in article PMC7895384.

Key:
[1] = biological target: Six4-HA (HA-tagged Six4, Six4-3xHA) (Drosophila); experiment: co-IP; two of the three tagged proteins co-expressed in S2 cells; graded concentrations (150mM to 1200mM) of NaCl in the 1% NP-40 lysis buffer (S7C-E Fig; lanes with two proteins of S7F Fig, % co-IP quantified from band intensities, n = 3)
[2] = biological target: Six4-HA (HA-tagged Six4, Six4-3xHA) (Drosophila); experiment: co-IP; Six4-HA, Myc-Erm and Flag-PntP1 all three co-expressed in S2 cells; IP with anti-HA or anti-Flag antibody; 150mM or 1200mM NaCl; % co-IP quantified from band intensities, normalized by the IPed protein, n = 3 (S7F Fig)

% co-IPed Myc-Erm with the anti-HA antibody (1200mM NaCl, without Flag-PntP1) [1]: 6.7%
% co-IPed Myc-Erm with the anti-HA antibody (1200mM NaCl, Flag-PntP1 co-expressed) [2]: 13.6%
Substance: Myc-Erm (Myc-tagged Earmuff) (from UniProt Q9VQ56 1-611) (natural protein)
